Assay results taken from paper PMC2174365.
Where two headings read alike, the source gives them in different places.

Legend:
[1] = target: sea urchin sperm flagellar axonemes (sea urchin); assay: optical trapping bead assay
[2] = target: sea urchin sperm flagellar axonemes (sea urchin); assay: single-molecule fluorescence motility assay
[3] = target: sea urchin sperm flagellar axonemes (sea urchin); assay: single-molecule fluorescence motility assay; remark: listed apart in the source
[4] = target: microtubules (taxol-stabilized; polymer of alpha- and beta-tubulin)
[5] = target: sea urchin sperm flagellar axonemes (sea urchin); assay: single-molecule fluorescence motility assay; remark: listed apart in the source

| Km(MT) of the microtubule-stimulated ATPase, NEM-modified control [4] | Km(MT) of the microtubule-stimulated ATPase, with 200 μM DTNB [4] | Km(MT) of the microtubule-stimulated ATPase, without DTNB [4] | Substance | other results |
| --- | --- | --- | --- | --- |
|  |  |  | Cys344 Cys-light K560-GFP (neck coiled-coil mutant Tyr344Cys) (from UniProt P33176 1-560) (domain or fragment) | fold change of the dissociation rate under load (with DTNB against without DTNB) [1]: 1.2 fold; frequency of movement/binding [2]: 2 /min/μm/nM; frequency of movement/binding [3]: 2 /min/μm/nM |
| 1.51 μM tubulin | 2.36 μM tubulin | 0.62 μM tubulin | Cys334/Cys222 Cys-light K560-GFP (neck linker mutant Glu334Cys/Lys222Cys) (from UniProt P33176 1-560) (domain or fragment) |  |
|  |  |  | Cys337/Cys344 Cys-light K560-GFP (neck coiled-coil double mutant Ala337Cys/Tyr344Cys) (from UniProt P33176 1-560) (domain or fragment) | association time [2]: 3.8 s; association time [5]: 2.5 s |
| 0.45 μM tubulin | 2.35 μM tubulin | 0.57 μM tubulin | Cys330/Cys4 Cys-light K560-GFP (neck linker mutant Ser330Cys/Leu4Cys) (from UniProt P33176 1-560) (domain or fragment) |  |
|  |  |  | Cys337 Cys-light K560-GFP (neck coiled-coil mutant Ala337Cys) (from UniProt P33176 1-560) (domain or fragment) | association time [3]: 3.7 s |
